Measurements as given in PMC5982450.

Assays:
[1] = target: C5a receptor (C5aR) (human (endogenous in neutrophils)) (UniProt P21730)
[2] = target: formylated peptide receptors (FPR) (human (endogenous in neutrophils)) (UniProt P21462)
[3] = target: formylated peptide receptors (FPR) (human (endogenous in neutrophils)) (UniProt P21462); remark: listed apart in the source

Sequence of UniProt P21730 (P21730 whole entry): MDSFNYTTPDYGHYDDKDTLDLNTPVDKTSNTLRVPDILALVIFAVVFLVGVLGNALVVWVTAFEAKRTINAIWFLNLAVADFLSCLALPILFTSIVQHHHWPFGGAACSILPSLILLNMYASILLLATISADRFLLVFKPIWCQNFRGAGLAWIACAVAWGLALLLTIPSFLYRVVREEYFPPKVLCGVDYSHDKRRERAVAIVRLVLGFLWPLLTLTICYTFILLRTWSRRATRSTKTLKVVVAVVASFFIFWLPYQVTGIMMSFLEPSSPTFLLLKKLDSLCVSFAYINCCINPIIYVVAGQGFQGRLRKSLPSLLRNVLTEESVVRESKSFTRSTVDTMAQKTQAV
Sequence of UniProt P21462 (P21462 whole entry): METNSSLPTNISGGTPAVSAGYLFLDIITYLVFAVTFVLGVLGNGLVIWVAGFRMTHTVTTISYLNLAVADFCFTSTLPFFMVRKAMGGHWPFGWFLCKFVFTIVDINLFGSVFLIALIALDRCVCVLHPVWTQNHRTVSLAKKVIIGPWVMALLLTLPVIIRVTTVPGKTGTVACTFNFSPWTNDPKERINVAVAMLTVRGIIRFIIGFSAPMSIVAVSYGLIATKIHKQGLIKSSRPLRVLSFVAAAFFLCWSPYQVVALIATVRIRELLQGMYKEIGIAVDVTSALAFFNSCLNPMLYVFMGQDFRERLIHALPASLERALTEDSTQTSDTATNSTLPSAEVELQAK

Substance	neutrophil chemotaxis towards human fracture hematoma serum in a 3D fibrin gel, mean vector speed without vs with CHIPSΔ1F (10 μg/ml); value is the speed with CHIPSΔ1F [1] [μm/min]	neutrophil chemotaxis towards human fracture hematoma serum in a 3D fibrin gel, mean vector speed without vs with CHIPS (10 μg/ml); value is the speed with CHIPS [1] [μm/min]	neutrophil chemotaxis towards human fracture hematoma serum in a 3D fibrin gel, mean vector speed without vs with CHIPS (10 μg/ml); value is the speed with CHIPS [2] [μm/min]	neutrophil chemotaxis towards fMLF (10^-7 M) in a 3D fibrin gel, mean vector speed without vs with CHIPS (10 μg/ml); value is the speed with CHIPS [3] [μm/min]
CHIPSΔ1F, a CHIPS mutant lacking the first N-terminal amino acid (domain or fragment)	4	–	–	–
chemotaxis inhibitory protein of Staphylococcus aureus (CHIPS) (from UniProt A6QIG7 29-149) (natural protein)	–	3.3	3.3	0.4
